Laboratory results reported in PMC8228714, “Structural Constraint of Osteopontin Facilitates Efficient Binding to CD44” (Biomolecules, 2021).
Each block holds one molecule with its values, some of them ahead of it.

Columns and labels:
[1] = molecular target: Recombinant extracellular domain of CD44 (aa21–606), His- and SUMO-tags (Lifespan Biosciences); test: ELISA; receptor (CD44v or integrin) plated on a high-binding 96-well plate, GST-OPN in solution 2 h at room temperature; 10 mM HEPES pH 7.4, 150 mM NaCl, 2 mM MnCl2, 0.05% Tween 20; detection with HRP-anti-GST; constants from double-reciprocal plots
[2] = molecular target: truncated version of CD44v (MyBiosource); test: as above
[3] = molecular target: extracellular portion of integrin αVβ3 (R&D Systems) (UniProt P06756); test: as above
[4] = molecular target: T1, extracellular portion of integrin α9β1 (R&D Systems) (UniProt Q13797 30-977; P05556 21-728); test: SPR; BIACORE 2000, CM5 chip; about 8000 RU of GST-OPN, CD44v or integrin α9β1 immobilised by amine coupling, BSA control flow cell; one protein in the flow, 50 μL/min, 120 s; 10 mM HEPES, 150 mM NaCl, pH 7.4, 0.05% Tween 20, 0.4 mM MnCl2, 25 °C; details: both partners purified
T1 construct: also called α9β1 extracellular domain; source: bought: R&D Systems
T1 sequence (Q13797 30-977, chain 1 of 2): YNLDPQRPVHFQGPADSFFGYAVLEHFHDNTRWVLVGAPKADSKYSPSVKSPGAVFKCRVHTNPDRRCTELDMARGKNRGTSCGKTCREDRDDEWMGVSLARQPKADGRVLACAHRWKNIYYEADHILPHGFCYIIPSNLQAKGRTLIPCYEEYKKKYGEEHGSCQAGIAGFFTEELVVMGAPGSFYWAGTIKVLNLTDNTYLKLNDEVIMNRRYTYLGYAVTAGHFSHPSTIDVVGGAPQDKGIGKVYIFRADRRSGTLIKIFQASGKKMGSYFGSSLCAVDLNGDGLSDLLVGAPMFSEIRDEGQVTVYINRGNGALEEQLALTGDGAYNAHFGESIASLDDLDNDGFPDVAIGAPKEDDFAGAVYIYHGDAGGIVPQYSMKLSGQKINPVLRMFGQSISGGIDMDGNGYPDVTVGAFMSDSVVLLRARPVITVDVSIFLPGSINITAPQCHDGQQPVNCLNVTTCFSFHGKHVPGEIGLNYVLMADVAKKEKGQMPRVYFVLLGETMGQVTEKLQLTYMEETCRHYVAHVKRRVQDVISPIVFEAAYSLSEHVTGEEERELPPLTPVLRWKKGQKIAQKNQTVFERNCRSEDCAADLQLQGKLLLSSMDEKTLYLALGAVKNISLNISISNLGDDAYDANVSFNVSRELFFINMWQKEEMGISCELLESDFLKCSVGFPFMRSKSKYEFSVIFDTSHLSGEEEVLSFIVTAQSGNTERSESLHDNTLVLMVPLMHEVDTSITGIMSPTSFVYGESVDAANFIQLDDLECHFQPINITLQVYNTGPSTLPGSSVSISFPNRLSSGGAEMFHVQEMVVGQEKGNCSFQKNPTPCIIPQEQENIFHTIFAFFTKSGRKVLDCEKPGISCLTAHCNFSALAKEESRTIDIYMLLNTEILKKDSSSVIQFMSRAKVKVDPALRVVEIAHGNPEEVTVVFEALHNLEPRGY
T1 sequence (P05556 21-728, chain 2 of 2): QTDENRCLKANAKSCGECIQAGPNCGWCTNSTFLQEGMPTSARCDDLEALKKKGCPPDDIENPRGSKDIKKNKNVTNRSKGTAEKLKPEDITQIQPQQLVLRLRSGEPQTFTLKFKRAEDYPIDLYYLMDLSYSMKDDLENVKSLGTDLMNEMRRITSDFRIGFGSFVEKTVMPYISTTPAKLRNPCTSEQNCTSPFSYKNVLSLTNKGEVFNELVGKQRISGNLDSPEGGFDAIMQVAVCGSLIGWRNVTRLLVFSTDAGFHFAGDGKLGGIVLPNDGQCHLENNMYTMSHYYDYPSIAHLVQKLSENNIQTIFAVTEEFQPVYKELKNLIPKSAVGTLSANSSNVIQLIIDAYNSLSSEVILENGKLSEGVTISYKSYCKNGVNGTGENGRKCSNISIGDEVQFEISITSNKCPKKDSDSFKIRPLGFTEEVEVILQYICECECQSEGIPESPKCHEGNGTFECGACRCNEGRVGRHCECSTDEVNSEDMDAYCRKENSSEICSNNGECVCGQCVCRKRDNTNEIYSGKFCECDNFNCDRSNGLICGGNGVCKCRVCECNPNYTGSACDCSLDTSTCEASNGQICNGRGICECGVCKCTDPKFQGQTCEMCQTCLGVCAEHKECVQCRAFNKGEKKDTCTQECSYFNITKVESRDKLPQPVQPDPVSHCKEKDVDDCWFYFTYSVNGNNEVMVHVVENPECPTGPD

Sequence of truncated version of CD44v (MyBiosource) (P16070 21-742): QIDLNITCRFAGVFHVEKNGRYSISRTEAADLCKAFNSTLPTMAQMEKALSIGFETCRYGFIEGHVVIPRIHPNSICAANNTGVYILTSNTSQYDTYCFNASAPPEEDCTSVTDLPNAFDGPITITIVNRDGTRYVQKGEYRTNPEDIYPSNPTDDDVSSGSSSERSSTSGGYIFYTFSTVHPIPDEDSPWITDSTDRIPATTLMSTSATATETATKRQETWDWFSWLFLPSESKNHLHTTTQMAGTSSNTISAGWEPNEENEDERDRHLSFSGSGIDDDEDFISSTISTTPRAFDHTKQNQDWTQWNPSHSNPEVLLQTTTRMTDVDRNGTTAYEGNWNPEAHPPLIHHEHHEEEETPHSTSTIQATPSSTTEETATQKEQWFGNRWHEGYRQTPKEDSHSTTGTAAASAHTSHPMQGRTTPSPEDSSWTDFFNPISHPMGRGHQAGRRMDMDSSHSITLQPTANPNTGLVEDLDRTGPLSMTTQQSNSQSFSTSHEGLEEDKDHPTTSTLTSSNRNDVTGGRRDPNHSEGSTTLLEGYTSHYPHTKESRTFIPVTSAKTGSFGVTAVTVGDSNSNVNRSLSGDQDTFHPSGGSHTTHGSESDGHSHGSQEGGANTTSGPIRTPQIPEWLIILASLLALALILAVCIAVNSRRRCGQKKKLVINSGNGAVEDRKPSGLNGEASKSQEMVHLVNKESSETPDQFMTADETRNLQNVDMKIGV

Molecule: Bacterial recombinant GST-OPNa (after deletion of the signal sequence) (from UniProt P10451-1 17-314) (ligand)
half-maximal binding concentration (CD44 titrated 0–1000 ng, OPN 125 ng) [1]: 95.5 ng
half-maximal binding concentration (CD44 titrated 0–1000 ng, OPN 250 ng) [1]: 60.9 ng
half-maximal binding concentration (CD44 titrated 0–1000 ng, OPN 500 ng) [1]: 107 ng
half-maximal binding concentration (CD44 titrated 0–1000 ng, OPN 1000 ng) [1]: 151 ng
half-maximal binding concentration (CD44 titrated 0–1000 ng, OPN 2000 ng) [1]: 123 ng
half-maximal binding concentration (CD44 titrated 0–1000 ng, OPN 4000 ng) [1]: 138 ng
half-maximal binding concentration (OPN titrated 125–500 ng, CD44 65 ng) [1]: 0.77 ng
half-maximal binding concentration (OPN titrated 125–500 ng, CD44 125 ng) [1]: 8.09 ng
half-maximal binding concentration (OPN titrated 125–500 ng, CD44 250 ng) [1]: 40.5 ng
half-maximal binding concentration (OPN titrated 125–500 ng, CD44 500 ng) [1]: 50.8 ng
half-maximal binding concentration (OPN titrated 125–500 ng, CD44 1000 ng) [1]: 60.3 ng
fold lower affinity than for LSBio CD44v [2]: 8 fold

half-maximal binding concentration (OPN titrated 7.8–500 ng, aVb3 200 ng, taken from the row above) [3]: 502 ng
Molecule: GST-OPNb (ligand)

half-maximal binding concentration (OPN titrated 7.8–500 ng, aVb3 200 ng, taken from the rows above) [3]: 314 ng
Molecule: GST-OPNc (from UniProt P10451-3 17-287) (ligand)

binding result [4]: binds
B1: extracellular portion of integrin αVβ3 (R&D Systems) (receptor)
chain 1: FNLDVDSPAEYSGPEGSYFGFAVDFFVPSASSRMFLLVGAPKANTTQPGIVEGGQVLKCDWSSTRRCQPIEFDATGNRDYAKDDPLEFKSHQWFGASVRSKQDKILACAPLYHWRTEMKQEREPVGTCFLQDGTKTVEYAPCRSQDIDADGQGFCQGGFSIDFTKADRVLLGGPGSFYWQGQLISDQVAEIVSKYDPNVYSIKYNNQLATRTAQAIFDDSYLGYSVAVGDFNGDGIDDFVSGVPRAARTLGMVYIYDGKNMSSLYNFTGEQMAAYFGFSVAATDINGDDYADVFIGAPLFMDRGSDGKLQEVGQVSVSLQRASGDFQTTKLNGFEVFARFGSAIAPLGDLDQDGFNDIAIAAPYGGEDKKGIVYIFNGRSTGLNAVPSQILEGQWAARSMPPSFGYSMKGATDIDKNGYPDLIVGAFGVDRAILYRARPVITVNAGLEVYPSILNQDNKTCSLPGTALKVSCFNVRFCLKADGKGVLPRKLNFQVELLLDKLKQKGAIRRALFLYSRSPSHSKNMTISRGGLMQCEELIAYLRDESEFRDKLTPITIFMEYRLDYRTAADTTGLQPILNQFTPANISRQAHILLDCGEDNVCKPKLEVSVDSDQKKIYIGDDNPLTLIVKAQNQGEGAYEAELIVSIPLQADFIGVVRNNEALARLSCAFKTENQTRQVVCDLGNPMKAGTQLLAGLRFSVHQQSEMDTSVKFDLQIQSSNLFDKVSPVVSHKVDLAVLAAVEIRGVSSPDHVFLPIPNWEHKENPETEEDVGPVVQHIYELRNNGPSSFSKAMLHLQWPYKYNNNTLLYILHYDIDGPMNCTSDMEINPLRIKISSLQTTEKNDTVAGQGERDHLITKRDLALSEGDIHTLGCGVAQCLKIVCQVGRLDRGKSAILYVKSLLWTETFMNKENQNHSYSLKSSASFNVIEFPYKNLPIEDITNSTLVTTNVTWGIQPAPMPV
chain 2: GPNICTTRGVSSCQQCLAVSPMCAWCSDEALPLGSPRCDLKENLLKDNCAPESIEFPVSEARVLEDRPLSDKGSGDSSQVTQVSPQRIALRLRPDDSKNFSIQVRQVEDYPVDIYYLMDLSYSMKDDLWSIQNLGTKLATQMRKLTSNLRIGFGAFVDKPVSPYMYISPPEALENPCYDMKTTCLPMFGYKHVLTLTDQVTRFNEEVKKQSVSRNRDAPEGGFDAIMQATVCDEKIGWRNDASHLLVFTTDAKTHIALDGRLAGIVQPNDGQCHVGSDNHYSASTTMDYPSLGLMTEKLSQKNINLIFAVTENVVNLYQNYSELIPGTTVGVLSMDSSNVLQLIVDAYGKIRSKVELEVRDLPEELSLSFNATCLNNEVIPGLKSCMGLKIGDTVSFSIEAKVRGCPQEKEKSFTIKPVGFKDSLIVQVTFDCDCACQAQAEPNSHRCNNGNGTFECGVCRCGPGWLGSQCECSEEDYRPSQQDECSPREGQPVCSQRGECLCGQCVCHSSDFGKITGKYCECDDFSCVRYKGEMCSGHGQCSCGDCLCDSDWTGYYCNCTTRTDTCMSSNGLLCSGRGKCECGSCVCIQPGSYGDTCEKCPTCPDACTFKKECVECKKFDRGALHDENTCNRYCRDEIESVKELKDTGKDAVNCTYKNEDDCVVRFQYYEDSSGKSILYVVEEPECPKGPD
notes: also called aVb3; source: bought: R&D Systems
